Read-outs that look alike come from different tables or passages of the source. Blank lines part the entries; values can stand above or below the binder they belong to. Where no end group is shown, it is not given here.
Key:
[1] = target: T1, IL-18Rα-Fc (CD218a protein, Fc tag; ECD 19-329; ACROBiosystems, Inc, Cat. No. IL1-H5259) (UniProt Q13478 19-329); test: ELISA
T1 chain: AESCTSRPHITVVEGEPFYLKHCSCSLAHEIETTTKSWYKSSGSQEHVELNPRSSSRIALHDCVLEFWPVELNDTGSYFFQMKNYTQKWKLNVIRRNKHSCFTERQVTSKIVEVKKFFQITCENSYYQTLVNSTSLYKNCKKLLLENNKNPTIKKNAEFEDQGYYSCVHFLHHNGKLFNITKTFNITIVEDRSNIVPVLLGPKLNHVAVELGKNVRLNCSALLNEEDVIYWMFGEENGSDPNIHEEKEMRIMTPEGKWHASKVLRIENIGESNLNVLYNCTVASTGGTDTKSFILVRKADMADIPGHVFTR

[2] = target: T1, IL-18Rα-Fc (CD218a protein, Fc tag; ECD …); test: ELISA
[3] = target: T1, IL-18Rα-Fc (CD218a protein, Fc tag; ECD …); test: competition ELISA; tracer 7C06(bn1713)/NA-HRP 75 nM
[4] = target: T1, IL-18Rα-Fc (CD218a protein, Fc tag; ECD …); test: competition ELISA

EC50 [1]: 0.26 nM
Binder: GGFFECFYSPGHEWCIPSGG-biotin (cysteine pairing not given here) [biotinylated 7C06]

EC50 [2]: 0.11 nM
Binder: GGELCWRPFSFVDCEEGG-biotin (cysteine pairing not given here) [biotinylated alpha synthetic F1a Consensus Construct]

EC50 [1]: 0.16 nM
Binder: GGICWVPFHYLDELMCTGG-biotin (cysteine pairing not given here) [biotinylated 4D07]

IC50 [3]: 350 nM
Binder: GGFFECFYSPGHEWCIPSGG [7C06]

IC50 [4]: 11 nM
Binder: GGREDMECFWSPGQVWCIPSYLGG [10D09]

From patent publication US20240158457A1 (published 2024)
